This is an account of results in paper PMC4277400.

The experiment has as its target H1-HFBI: hemagglutinin ectodomain of influenza A/Texas/05/2009 (H1N1) fused to hydrophobin I (Influenza A/Texas/05/2009 (H1N1) virus | Trichoderma reesei) (UniProt P52754). Briefly: SEC. (In gel filtration, larger molecules generally elute earlier.)

In the case of “H1-HFBI: hemagglutinin ectodomain of influenza A/Texas/05/2009 (H1N1) fused to hydrophobin I (from UniProt P52754 23-97)”, the ratio of HMWO/monomer is 2.
